# Results taken from patent US20200216495A1 (ADRX, published 2020).
# Square brackets hold non-standard residues; d marks the D form. Ends that are not written are not given here. dCit = NC(=O)NCCC[C@@H](N)C(=O)O
# Target: Ac-VQIINK-NH2 (SEQ ID NO: 23) (N-terminal acetyl (Ac); C-terminal amide (NH2))
# Assay: cell-based or functional assay
row,Binder,VQIINK Inhibition IC50 [µm]
1,[dL][dK][dI][dR][dI][dH][dY][dH] [lkirihyh],1.99
2,[dL][dK][dI][dR][dI][dH][dY][dR] [lkirihyr],3.02
3,[dW][dK][dV][dQ][dV][dR][dW] [wkvqvrw],2.21
4,[dL][dK][dI][dQ][dI][dH][dY] [lkiqihy],2.82
5,[dH][dR][dL][dK][dV][dR][dW][dH] [hrlkvrwh],1.97
6,[dW][dA][dL][dR][dI][dH][dW] [walrihw],3.12
7,[dL][dK][dI][dK][dI][dH][dY] [lkikihy],1.96
8,[dL][dK][dI][dR][dI][dH][dY][dE] [lkirihye],3.39
9,[dL][dE][dL][dK][dI][dK][dF][dW] [lelkikfw],2.78
10,[dW][dD][dL][dK][dV][dR][dW] [wdlkvrw],3.87
11,[dL][dR][dI][dR][dI][dH][dY][dH] [lririhyh],3.34
12,[dL][dR][dI][dE][dI][dE][dW][dH] [lrieiewh],2.1
13,[dL][dR][dI][dK][dI][dR][dF][dH] [lrikirfh],2.69
14,[dF][dH][dI][dR][dL][dE][dW][dH] [fhirlewh],2.01
15,[dW][dH][dV][dK][dF][dE][dL][dF] [whvkfelf],2.12
16,[dL][dK][dI][dR][dI][dH][dY][dA] [lkirihya],3.83
17,[dL][dK][dV][dR][dW][dW][dW][dR] [lkvrwwwr],3.34

row,Binder,VQIINK Inhibition IC50 [µm]
1,[dF][dR][dI][dR][dI][dH][dH][dF] [fririhhf],2.02
2,[dL][dK][dI][dH][dI][dR][dH][dW] [lkihirhw],2.38
3,[dF][dR][dL][dR][dI][dW][dW][dF] [frlriwwf],2.29
4,[dF][dK][dL][dW][dL][dR][dW][dF] [fklwlrwf],2.52
5,[dW][dK][dV][dW][dV][dR]G[dW] (not fully specified (residue 7); printed as wkvwvrgw) [wkvwvrgw],2.17
6,[dL][dK][dL][dH][dL][dH][dF][dH] [lklhlhfh],2.87
7,[dL][dA][dI][dR][dI][dH][dY][dH] [lairihyh],1.98
8,[dF][dR][dI][dK][dL][dR][dW] [friklrw],2.49
9,[dW][dE][dL][dR][dI][dH][dW] [welrihw],3.46
10,[dF][dK][dL][dK][dI][dK][dW] [fklkikw],2.66
11,[dF][dK][dL][dK][dL][dR][dW][dF] [fklklrwf],2.2
12,[dF][dK][dI][dK][dI][dK][dW] (not fully specified; printed as fkikikw) [fkikikw],2.35
13,[dW][dK][dL][dW][dL][dR][dW] (not fully specified; printed as wklwlrw) [wklwlrw],1.95
14,[dL][dK][dI][dA][dI][dH][dY][dH] [lkiaihyh],2.26
15,[dW][dA][dL][dK][dV][dR][dW] [walkvrw],3.32
16,[dF][dR][dI][dR][dL][dR][dW] [frirlrw],2.58
17,[dL][dK][dI][dCit][dI][dH][dY] [lkizihy],2.13

# Other lines, results leading:
row,VQIINK Inhibition IC50 [µm],Binder
1,3.79,[dW][dW][dL][dK][dL][dR][dW][dW] [wwlklrww]
2,2.2,[dW][dR][dL][dE][dI][dH][dW] [wrleihw]
3,2.23,[dW][dR][dL][dR][dI][dH][dW] [wrlrihw]
4,3.57,[dW][dR][dL][dK][dV][dA][dW] [wrlkvaw]
5,2.53,[dW][dR][dL][dK][dV][dR][dW][dF] [wrlkvrwf]
6,2.23,[dW][dR][dL][dK][dF][dR][dW] [wrlkfrw]
7,2.89,[dW][dR][dL][dR][dI][dT][dW] [wrlritw]
8,2.27,[dW][dQ][dL][dK][dV][dQ][dW] [wqlkvqw]
9,2.42,[dW][dR][dL][dD][dV][dR][dW] [wrldvrw]
10,2.12,[dW][dR][dL][dQ][dV][dR][dW] [wrlqvrw]
11,3.34,[dW][dM][dL][dR][dI][dH][dW] [wmlrihw]
12,1.99,[dW][dW][dL][dK][dL][dR][dW] [wwlklrw]
13,1.98,[dW][dR][dL][dR][dI][dE][dW] [wrlriew]
14,1.95,[dW][dR][dF][dK][dF][dR][dW] [wrfkfrw]
15,2.86,[dW][dR][dL][dR][dI][dA][dW] [wrlriaw]
16,1.92,[dW][dR][dL][dK][dV][dR][dW][dH] [wrlkvrwh]
17,3.5,[dW][dN][dL][dK][dV][dN][dW] [wnlkvnw]
18,2.15,[dW][dR][dL][dK][dV][dQ][dW] [wrlkvqw]
19,2.11,[dW][dW][dL][dR][dI][dH][dW] [wwlrihw]
20,2.74,[dW][dQ][dL][dQ][dV][dR][dW] [wqlqvrw]
21,3.16,[dW][dR][dL][dT][dI][dH][dW] [wrltihw]
22,2.45,[dW][dR][dL][dK][dV][dR][dW] [wrlkvrw]
23,2.61,[dW][dR][dL][dR][dI][dM][dW] [wrlrimw]
24,1.97,[dW][dR][dL][dK][dV][dR][dW][dW] [wrlkvrww]
25,3.21,[dW][dR][dL][dK][dV][dD][dW] [wrlkvdw]
26,2.82,[dW][dT][dL][dR][dI][dH][dW] [wtlrihw]
